The values below are quoted from earlier work in paper PMC6275225.

In general, Kd refers to the free concentration of one partner at which half of the binding sites on the other are occupied at equilibrium, for simple one-to-one binding.

For the data set, the target named is LFA-3 (Homo sapiens) (UniProt P19256).
UniProt P19256, sequence (P19256 29-215): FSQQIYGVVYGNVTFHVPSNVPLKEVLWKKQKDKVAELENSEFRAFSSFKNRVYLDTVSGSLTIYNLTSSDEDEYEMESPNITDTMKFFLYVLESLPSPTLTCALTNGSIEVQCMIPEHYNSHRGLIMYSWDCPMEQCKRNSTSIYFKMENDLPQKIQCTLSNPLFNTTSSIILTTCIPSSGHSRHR

In the case of CD2 (from UniProt P06729), the Kd was 15 µM.
